Reference: the DeepSol protein solubility set

Assay: soluble on expression in E. coli; label from the status in PepcDB or PDB records

| Sequence | soluble on expression in E. coli |
| --- | --- |
| MTRAILFDLDGTLVDTRAASWQLFSETNLAFALGIDSREAFFRAFEGNFFESLAKLCPDPQRAAAVKAHFMELLRTRYHPALIPGMVDVVRALAPHSTLAVISTNGIEAIRRILVGADLANCFSHVFSGDVEPRKAVSIRRFLGDHRYAVHRACSPAYHDGEASHASLQAQDVVLVTDTVGDVREAREAGIRAIGVTWGMHSERQLLDAGAERVALWPQELVAWLRDADAPATSCGCSSGSADSCALPPAPAPAVRAAAAPPTGDPVREVARHRRERQLHTRLQAAAATAPAAPGASMASAASGPSARTELMSSLQRILREGDH | not soluble |
| MTRKFLNILKERTGVESITREQVRGIRRLVKKAREWDERKAQRYAKSAGKISDEEYSRLWSIDSYVISDSDKEKLKNLDQKTVFNNIMWLSRNAEKIDSNMKKFLGMHVWVVNYWIKTVGSATVRKFLRENNYSGEFVYFLYRYFNL | not soluble |
| MTRPIGIYEKATPKHFNWLERLQFAKELGFDFVELSIDESDERLARLEWSKEERLELVKAIFETGVRVPTITFSGHRRFPMGSNNPEKEARAMDMMKKCIVFAQDIGIRNIQLAGYDVYYEEKSPETRARFIKNLRQACTWAEEAQVILSIEIMDDPFMNSIEKYLAVEKEIDSPYLFVYPDTGNVSAWHNDLWSEFYNGHRSIAALHIKDTYAVTETSKGQFRDVPFGQGCVDWEEMFAVIKKTNYNGPFLIEMWSENCETVEETRAAIKEAQDFLYPLMEKTGVK | not soluble |
| MTSALPRPAPSPYARRKTALVIGAGFGGLALGIRLQSLGFDTTILERLDGPGGRAYQKRTPDGYVFDMGPTVLTVPHFIEELFALERDRAGLDAPDYPPEVLSGERVKEGVSGGPHTSRYVTLVPILPFYRIVFHDGTYFDYDGDPESTRRQIAELAPGDLAGYERFHADAEAIFRRGFLELGYTHFGDVPTMLRVVPDLLKLDAVRTLFSFTSKYFQSDKLRQVFSFETLLVGGNPLSVPAIYAMIHFVEKTWGIHYAMGGTGALVRGLVQKFEELGGAIRYGAGVDEVLVDGNLPGKRTARGVRLESGEELRADLVASNGDWANTYLKRVRPSARLVNSDLRVKAASESMSLLVVYFGFRGGDDLPLKHHNILLGPRYEALLSEIFGTKRLGEDFSQYLHVPTLTDPALAPAGHHAAYTLVPVPHNGSGIDWDVEGPKLAEAALADIERRGLIPGLRERLTHFEFITPDYFAGTLDSYLGNAFGPEPRLVQSAFFRPHNRSEDLHNFYLVGAGAQPGAGTPSVMMSAKMTARLIAEDFGIHADIRRLEHHHHHH | not soluble |
| MTSIEWDEKTFTKFAYLSDPRTRKNLVAYVLTKANLESNKYENTIVIENLEDGSRKFIEDASMPRISPDGKKIAFMRFNEEKKTAQIWVADLKTLSAKKVLEAKNIRSIEWNQDSRRLLAVGFKRREDEDFIFEDDVPAWFDNMGFFDGEKTTFWVIDTEGEEVIEQFEKPRFSSGIWHGDSIVVSVPHRDVIPRYFKYWDIYLWKDGEEEKLFEKVSFYAIDSDGERILLYGKPEKKYVSEHDKIYIYDGEVKGILDDIDREVAQAKIRNGKVYFTLFEEGSVNLYLWDGEVREIAKGKHWIMGFDADERLIYLKETATRPAELYLWDGEERQLTDYNGLIFKKLKTFEPRHFRFKSIDLELDGWYIKPEIKEGEKAPVIVFVHGGPKGMYGYYFKYEMQLMASKGYYIVYVNPRGSNGYSEDFALRVLERTGLEDFQDILNGIEEFLRLEPQADRERIGITGISYGGYMTNWALTQSDLFKAGISENGISYWLTSYAFSDIGLWFDKEVIGDNPLENENYRKLSPLFYAKNVKAPLLLIHSLEDYRCPLDQSLMFYHVLKDLGKEVYIAIFKKGAHGHSIRGSPRHRMKRYKLFMEFFERKLKKYEEGFDVEKILKEEKK | soluble |
| MTSILNPVIRKEYSELKRPDLRGKFICASCGQHFQHNASLNRHRRLLHGNEHTCMMCDRKLNAKETIRDHMRNEHNLFQVFTCGCCNWSFSSKRQLSEHTKCIQGTGAPGDTIPIAKSCNAPGSLIQSTIQGTPPVVKTGRKRGGSLSSSSSVSTSISSRDVSGSPPPTEEEAERKVLFDNAVDTILQSKFFTYQQITEVDTWIKIIENANTLADTLQRINKTKKIKAEMPADKDVKRFKLEVE | not soluble |
| MTSLSVNDRKDFVDGQMKYWRQIAESDGFDIDDVPVPRGTRAGLWSVDCKHPRFRLRACLPKIYAMVGLHRYNLLRGTNFEHLELLKYNESMNCVCSYYITSVAVDLSSQLQKTFQIRVDEKSFGDLDLTVSVARPNDEEKVTTEKRFIHHFHCEAAADDFYKGALPDWPSVGDLNNQKRFYMVKKCELQSNDWIRLYLELAVGVRYQQTSESDLSKLQVLKVAIETKEEDVQPPNRRLKSKSLHVYITFKGLAKAPIGDEIGEHVERKAIVRRVIDERSGHLTLLGGFSNAKNDLNQSSDDEQPFGKRRRI | soluble |
| MTSLVRGQNTPLTSPQLTVTVSGVTPGSVDLMVFQVTTTGNVRSDSDFVFFNQPASPEGAVRLTGPSTVDVDVTKVPHSIDRLRLAVSMDDSAPGSLAAIPGLGVTLGSVSAPALGLTTERAAVLAEIYRRGEQWKIRNVSAGWDTGLKALVTEHGVVVDDAPSHPPAPTYPSTPPAQPPAPVIAPPAPTPTPAPQPRVQRSKITLTKASPTVSLAKGGDTGTMRVNLNWTRGRRGLFGGNGAIDLDLACLYQLNDGSKGVVQALGNAFGDLHYPPYIALDGDDRSGTNAGGENLHINLAHLADFKRILIFAYIYDGTPNWSAADGIVTLYPPHGPEVEVRLDSPDNRARSCAIALLKNERNELTVTREVRYINGTQSDISKAYRWGLKWTAGRK | not soluble |
| MTSSTGTRRLTAKGRATRDRIVAAAAQLMYERGVTGTSTEDILKAARVASPSQLYHYFGDKRGLVQAVIEHQTEQVLGFQKPLLSRLDSIEALEAWRDAVVEAQHARDCQGGCPLGSLASELSDLDPQARARLVAGYEQWGNAIREGLRSMRERGELDGGADPDRLALALLTALQGGLLMTQTRRDTIALEAVLNTMIDHIRFRTTP | soluble |
| MTSTPEFLKQLDYEQLKYCRELCDNRIRAIEAEEKKMAWAVTDGGINYGWFRTEDYMKAVECLVATAAERWEESDKADPSGRGWLDLSIRGSRLPVSEYEALFADGQWG | not soluble |
| MTSTSRPPARGSENNGSGGSDGSGSGEDKVKGPTDKELEDAVNKLVEVAKKKAQEEADQARRSVEGKKSFEGDVLEYPYTREEVTKMIEDGAKEIKERFAAVYTPKPDDFDTMISRMQQVEAVLGAYEPSKNTTKETPVIGGGGDLELLRTSVSDMSDWQGKLKNAFVDNYLTPFPRITVTQGGLARFLRHQAEWMQAIYKRRRYDAKKTADQGVEAIEAIDDSKGSEAAIALAAIIGLATLLGPMGSSLAFGLGTSAVVAGTGIGAEFIEEDKEVPLGADTVQGVIDNVYKALEESDKTMVEEEGKVLDALKQIEGVVYPLVMGPDIDKGTELTPMRPAIVDTMDVEELKDGITVYDRHPGGS | not soluble |
| MTSYDQIWETFLNNCETSDFDVPQQEEDIYKSIRNAILHFNNRLRDNLKADNSTETVNRELSEDDLLILAHFLRYIFLLNKKTLFENTWQPFTNDVGIKNFGTQLNSLKQSVMDQKDEIERLILNAAVDYLLEHHHHHH | not soluble |
| MTSYSLEDFNTPLECAPLARWERKRKEQLDRTSKTPNKTPQGDRFIPNRNVMNIEVSRLNLQQEYYGKENNQNSSSLLDSHMDNVEWNSGKDSPACHHYQSALASSLLQNSYHEEHPQSKILTFKQKAPKPQEGYVNSLKVLYSQNMPQISEQRKRMIRHIPQTPDRILDAPELVDDYYLNLLDWNHENILAVALGSSVYLWNASTGDIQELCNVSQDEMICSVSWVPDGHHLAVGTSMKDVQLWDTQRGRQVRKMHSHSSRVGCLAWNGPILSSGSRDTTIHHHDVRIAQHHVETLRGHEQEVCGLKWNVDGSQLASGGNDNLLMIWDHFHSNQPKYRLDHHHAAVKAIAWCPWQTHLLASGGGTADRTIKFWNTTTGACLQSIDTKSQVCALIWNRHDKEIVSSHGFSQNQLIVWKYPSMVKMAELTGHTSRVLHLSLSPDGQTVVSGAGDETLRFWRVFEASESKLKSSNKTLGHSQKSIMRTCNIR | soluble |
| MTTDAAVAELLALGELTVRGRIRDASNAALYCTVTHEGREAACVYKPVAGERPLWDFPDGTLAQREVAAYEVSEATGWGLVPPTVLRDGPYGEGMVQLWIETVPETELLALVDEEEPGPGWKGIALAEVGEGRTALLVHADDERLRRLAVLDAVINNADRKGGHLLPAAGERLYGIDHGVTFNAENKLRTLLWGWAGDALTGEALAVLDALRRALKDGGTLALRLAALITPAELDATRARVDALLASGKHPEPGGEWPAIPWPPVLEHHHHHH | not soluble |
| MTTDFTPWPEALAAQYRQLGYWQDKTLLDYLQQSAERTPNALALVGDNQQWRYQAMLERIEQLAAGFTELGLGCGDNVVLQLGNVAEFYLCFFALLRQGIRPILALPAHRLAEIRYFCQHSQAKAYLIDGAQRPFDYQALAQELLACCPTLQTVIVRGQTRVTDPKFIELASCYSASSCQANADPNQIAFFQLSGGTTGTPKLIPRTHNDYAYSVTASVEICRFDQHTRYLCVLPAAHNFPLSSPGALGVFWAGGCVVLSQDASPQHAFKLIEQHKITVTALVPPLALLWMDHAEKSTYDLSSLHFVQVGGAKFSEAAARRLPKALGCQLQQVFGMAEGLVNYTRLDDSAELIATTQGRPISAHDQLLVVDEQGQPVASGEEGYLLTQGPYTIRGYYRADQHNQRAFNAQGFYITGDKVKLSSEGYVIVTGRAKDQINRGGEKIAAEEVENQLLHHPAVHDAALIAISDEYLGERSCAVIVLKPEQSVNTIQLKRFLHQAGLADYKIPDQIQFIDQLPKTSVGKIDKNALRRRFDTLGLALMS | not soluble |
| MTTDQSKLEAINQALRAQRQLVRQLDDQQASLERQLQGLTGDSAGWAADTDPALGHVLEAFHALLGSLTESLSQGDAAQLLARCAAELLPDTTGAIFVDQAGVEPANRAIAAWRGAELLTDPNALHYECTEDQAAHRLNIEAQGLYLGVVELRPLSPGRALRAREQQTLQMLASAAGLALATHTLRYRLRHRNVRDPLTGLFNRRYAEDTLERELHRAQRHQLPLSVVLIDLDRFEAYNQRHGQNAGDRMLQAMSDLLQHSFRGSDICARAAGQRFLLVLPEAAIRDAIERANDLRRELAKVRVHLRGLHLPAMTVSMGVAGYPEHADSSDDLMAAADAALQLAKHSGGNTCALAEKVPLSPHNE | soluble |
| MTTEKINLLDFDRKGLRTFFAEELGEKAFRAEQVMKWIYHFGCDDFDQMNNINKQLREKLKAKCEIRAPYVSEAQHSADGTIKWAMRVGDQDVETVYIPEDDRATLCVSSQVGCALECKFCSTAQQGFNRNLRVSEIIGQVWRAAREIGLEKETGRRPITNVVMMGMGEPLLNMKNLIPALEIMLDDLGFGLSKRRVTVSTSGVVSGLEQMIGQIDVALAISLHAPNDKLRSEIMPINDRWNIEAFLEVVRRYIASSNANRGKVTVEYVLLDHVNDGTEHAHELAELLKGTPCKINLIPFNPYPGSPYKKPSNSRIDRFQKTLMQYEHTVTIRKTRGDDIDAACGQLVGDVIDRTKRTKAKQFDGQAIPVKTL | not soluble |
| MTTGNNDFYYSNKYEDDEFEYRHVHVTKDVSKLIPKNRLMSETEWRSLGIQQSPGWMHYMIHGPERHVLLFRRPLAATQKTGGNVRSGNAVGVR | not soluble |
| MTTHLNPPQEAPYMKNATFYLLDNDTTVNGLSAVEQLVCEIAAERWRAGKRVLIACEDEKQAIRLDEALWARPAESFVPHNLAGEGPRGGAPVEIAWPQKRNSSPRDILISLRTSFADFATAFTEVVDFVPYEETLKQLARERYKAYRVAGFNLNTATWK | not soluble |
| MTTKRKETRESVCYREIKKKIRNGELKPGDRLIENTLSEQLGISRTPIRKAIGMLAADGYVEYNDFRGAFVRDSIINKERYFEMTEILGLFLKQAIQKIRTKKISFNKMRVVAKLVEIERDVEPSDPAVYFEYEKWFVNDLLTYMKNNYYLKISNDFFNNIQEFGDEEVIKIAQNACVKTIANIQRFIDALEAQNYDECMAIIDQVIDAHVLVAYR | not soluble |
